Where a chain is given by its changes, count along the chain named.
Columns and labels:
PET [1] = test: Proxy for plastic degradation [Crystallinity (DSC)] (% crystallinity loss); details: pH 9.4
PET [2] = test: Proxy for plastic degradation [Absorbance @ 240nm]
PBSA = test: Proxy for plastic degradation [kcat/Km (catalytic efficiency)] (mM⁻¹s⁻¹); details: pH 8.2
PET [3] = test: Proxy for plastic degradation [Released monomer concentration (HPLC/LC-MS) (TA)]; details: pH 7
PET [4] = test: Proxy for plastic degradation [Released monomer concentration (HPLC/LC-MS) (BA)]; details: pH 7
PET [5] = test: Proxy for plastic degradation [Released Products (MHET,BHET, TPA)]; details: pH 8

B1: unnamed (protein)
chain: MNFPRASRLMQAAVLGGLMAVSAAATAQTNPYARGPNPTAASLEASAGPFTVRSFTVSRPSGYGAGTVYYPTNAGGTVGAIAIVPGYTARQSSIKWWGPRLASHGFVVITIDTNSTLDQPSSRSSQQMAALRQVASLNGTSSSPIYGKVDTARMGVMGWSMGGGGSLISAANNPSLKAAAPQAPWDSSTNFSSVTVPTLIFACENDSVAPVASSALPIYDSMSRNAKQFLEINGGSHYCANSGNSNQALIGKKGVAWMKRFMDNDTRYSTFACENPNSTRVSDFRTANCSLEHHHHHH
For B1, the “Proxy for plastic degradation” value (PET [1]) was 3.2.

B2: unnamed (protein)
chain: B1 chain with A212N, Y238S
With B2 the “Proxy for plastic degradation” value (PET [1]) was 0.6.

B3: unnamed (protein)
chain: B1 chain with Y238S
In the case of B3, the “Proxy for plastic degradation” value (PET [1]) is reported as 2.

B4: unnamed (protein)
chain: B1 chain with V208I, A212N, Y238S
For B4, the “Proxy for plastic degradation” value (PET [1]) was 1.5.

B5: unnamed (protein)
chain: MFQRVWALTAALMLMLSLGATSSHAAQNPHERGPDPSNSYIEQARGSYSVSQRSISRLGSDGFRDGTMYYPTSTADGRFGVVAISPGYTASESTIAWLGPRLASFGFVVVTINTDSRYDQPRQRATQLHAALDHAIGDSVVGPRIDTSRQAVMGHSMGGGGALQAAEERDEIRAAVPLTPWNLKKGWSGVDAATLVIGAENDAIAPVRSHSIPFYESLTNAERRAYLELRREGHFAPNSSNTLIAKYSVSWLKRYVDNDLRYDQFIDPGPRTGITTGVSDYRLG
In the case of B5, the “Proxy for plastic degradation” value (PET [2]; pH 8, 0 h) is reported as 0 µM, the “Proxy for plastic degradation” value (PET [2]; pH 8, 10 °C) is reported as 0.012 AU and the “Proxy for plastic degradation” value (PET [2]; pH 8, 28 °C) is reported as 0.016 AU. For the same protein, the “Proxy for plastic degradation” value (PET [2]; pH 8, 37 °C) was 0.045 AU, the “Proxy for plastic degradation” value (PET [2]; pH 8, 45 °C) was 0.073 AU and the “Proxy for plastic degradation” value (PET [2]; pH 8.5) was 0.199 AU. The “Proxy for plastic degradation” value (PET [2]; pH 9.5) was 0.085 AU and the “Proxy for plastic degradation” value (PET [2]; pH 10.5) was 0.015 AU.

B6: unnamed (protein)
chain: MLAVWDDTLAHPVRGRDRELATLTGLLDNTSGRRGTGMVVVGAPGTGKTTLLNALVEHAEGFQVLWAEGSAAESDVRFAGVEQLLRPLESLVSLLPDDRGRALRPVWGLPADDEGQVGSLAVPAAVSALLGLAARRQPVLCCVDSAHLLDSASLSALAFAARRAHHAGVVFVFAVDCTADTEVDTETSVWGELPRLRLGRLDDEAAHALLRDRLGASLPHDLADSLLDVGHGAPLALVELAESLTPEHLCGRAAPPSSPPPEGRLCRTLGHRLSALSEGAREVVALAGISEGLDEQLTCRVLPHHRSTLAEAVRSGLVVLDGDTVRTAADTVPSALLAALTPQDIVQAHHRMAEAAEAVGDRDRAVWHRAAIAMAPDPALVADLDDIAERARAAAAHATAAAASERAAALTSDTKERARRLVAAATDHWASGRPQRARTALRLAAPLSDSVLGARVSRLAGEIELRRGDPSVAATKLISTARQLASTHRTLAASALMLAGEASFVAGDNARYCLTAKDAALLCGPEEWPATRVVREHFTAMSATFRGEHSAAAAPLRSLVELGETTPDPTAKTLASQAAFTLGDAERSRDLALQAVVCARARGDESGVPWALVYAALSALLSGQLSAASTTALEGLQVARSLGQSNSAVDHVTVLAMLAALQGDEETALQRLQAANTELAERGLGRPSALATWAAACVDLAHDRPAEAFDRFRRMTVGRSRHCVPLRVMAVPHFVEAAVRCGEKEVARRSLVTFEHWANTTGGTARVALAHRCHALLAEQDGEAQERFTEAVRLHREADAPYDLAVTQLLYASHLRRSRRPKQARELLREAVQLFDDLGATHWVERASQELRACGHPGRGKPHLSRGLSPQQERIAQLVADGATNKEIATQLFISHRTVDHHLRNIFAKLDVRSRVQLAALFR
B6 was tested, and the “Proxy for plastic degradation” value (PBSA) was 430.

B7: unnamed (protein)
chain: B6 chain with A233D
With B7 the “Proxy for plastic degradation” value (PBSA) was 330.

B8: unnamed (protein)
chain: B6 chain with A233H
For B8, the “Proxy for plastic degradation” value (PBSA) was 375.

B9: unnamed (protein)
chain: MTHQIVTTQYGKVKGTTENGVHKWKGIPYAKPPVGQWRFKAPEPPEVWEDVLDATAYGPICPQPSDLLSLSYTELPRQSEDCLYVNVFAPDTPSQNLPVMVWIHGGAFYLGAGSEPLYDGSKLAAQGEVIVVTLNYRLGPFGFLHLSSFNEAYSDNLGLLDQAAALKWVRENISAFGGDPDNVTVFGESAGGMSIAALLAMPAAKGLFQKAIMESGASRTMTKEQAASTSAAFLQVLGINEGQLDKLHTVSAEDSLKAADQLRIAEKENIFQLFFQPALDPKTLPEEPEKAIAEGAASGIPLLIGTTRDEGYLFFTPDSDVHSQETLDAALEYLLGKPLAEKAADLYPRSLESQIHMMTDLLFWRPAVAYASAQSHYAPVWMYRFDWHPKKPPYNKAFHALELPFVFGNLDGLERMAKAEITDEVKQLSHTIQSAWITFAKTGNPSTEAVNWPAYHEETRETLILDSEITIENDPESEKRQKLFPSKGE
For B9, the “Proxy for plastic degradation” value (PET [3]; 1 h) was 0 µM, the “Proxy for plastic degradation” value (PET [3]; 2 h) was 100 µM and the “Proxy for plastic degradation” value (PET [4]; 1 h) was 10 mM. For the same protein, the “Proxy for plastic degradation” value (PET [4]; 2 h) was 1250 mM.

B10: unnamed (protein)
chain: MGSSHHHHHHSSGLVPRGSHMRGPNPTAASLEASAGPFTVRSFTVSRPSGYGAGTVYYPTNAGGTVGAIAIVPGYTARQSSIKWWGPRLASHGFVVITIDTNSTLDQPSSRSSQQMAALRQVASLNGTSSSPIYGKVDTARMGVMGWSMGGGGSLISAANNPSLKAAAPQAPWDSSTNFSSVTVPTLIFACENDSIAPVNSSALPIYDSMSRNAKQFLEINGGSHSCANSGNSNQALIGKKGVAWMKRFMDNDTRYSTFACENPNSTRVSDFRTANCSLEDPAANKARKEAELAAATAEQ
In the case of B10, the “Proxy for plastic degradation” value (PET [5]; 4 °C) is reported as 100 µM, the “Proxy for plastic degradation” value (PET [5]; 16 °C) is reported as 410 µM and the “Proxy for plastic degradation” value (PET [5]; 30 °C) is reported as 1100 µM. The “Proxy for plastic degradation” value (PET [5]; 37 °C) was 300 µM, the “Proxy for plastic degradation” value (PET [5]; 55 °C) was 180 µM and the “Proxy for plastic degradation” value (PET [5]; 70 °C) was 100 µM.
